Assay results as given in publication doi:10.1101/2025.10.30.685657.
Like-named read-outs stand apart in the source and are kept apart here.

Assays:
Test in all cases: live-cell long-exposure single-molecule localization microscopy
[1] = biological target: T3SS injectisome of Yersinia enterocolitica (Yersinia enterocolitica (endogenous)) (UniProt Q01245)
[2] = biological target: T3SS injectisome of Yersinia enterocolitica (Yersinia enterocolitica (endogenous)) (UniProt Q01245); remark: listed apart in the source
[3] = biological target: T3SS injectisome of Yersinia enterocolitica (Yersinia enterocolitica (endogenous)) (UniProt Q01245); remark: listed apart in the source

Substance	bound time constant tau (inverse of koff) [1] [s]	long bound time constant tau (long component of the bi-exponential fit) [1] [s]	short bound time constant tau (short component of the bi-exponential fit) [1] [s]	short bound time constant tau (short component of the bi-exponential fit) [2] [s]	weighted average bound time constant (short- and long-lived events) [2] [s]	bound time constant tau (inverse of koff) [3] [s]	weighted average bound time constant (short- and long-lived events) [1] [s]
Halo-tagged SctQ (from UniProt Q79NI3 1-307) (natural protein)	2.5	23	4.5	2.1	2.7	4.1	
Halo-tagged SctL (from UniProt Q01253 1-223) (natural protein)	3.4		3.1			3.9	4.4
